Measurements taken from patent publication CN112830969A (JIANGSU NOVOMAB BIOPHARMACEUTICALS INC, dated 2021).

B1: 人源化抗体HA1LA1 (antibody, human IgG1, kappa, V domains shown)
VH: QVQLVESGGGVVQPGRSLRLSCAASGFTFSTYGVHWVRQAPGKGLEWVAVIWNGGNTDYNAAFISRFTISRDNSKNTLYLQMNSLRAEDTAVYYCARNRRGGGFGMDYWGQGTLVTVSS
VL: DIVMTQSPDSLAVSLGERATINCKSSQSLLNGGIQKNYLTWYQQKPGQPPKLLIYWASTRESGVPDRFSGSGSGTDFTLTISSLQAEDVAVYYCQNAYTYPFTFGQGTKLEIKR
notes: also called Claudin18.2单抗对照
B2: 对照抗体(来自专利CN20148000912) (antibody, V domains shown)
VH: QIQLVQSGPELKKPGETVKISCKASGYTFTNYGMNWVKQAPGKGLKWMGWINTNTGEPTYAEEFKGRFAFSLETSASTAYLQINNLKNEDTATYFCARLGFGNAMDYWGQGTSVTVSS
VL: DIVMTQSPSSLTVTAGEKVTMSCKSSQSLLNSGNQKNYLTWYQQKPGQPPKLLIYWASTRESGVPDRFTGSGSGTDFTLTISSVQAEDLAVYYCQNDYSYPLTFGAGTKLELK

Legend:
[1] = target: T1, 人Claudin18.2 (过表达细胞) (human, UniProt P56856-2 1-261); assay: cell-based or functional assay
[2] = target: T2, 人Claudin18.2-His重组蛋白(Kactus,Cat.CLD-HE1821) (human, UniProt P56856-2 1-261, limits assumed); assay: ELISA, human Claudin18.2-His coated
T2 construct: Bought protein; also called Claudin18.2重组蛋白; not shown: His tag

[3] = target: T3, 人Claudin18.1 (过表达细胞) (human, UniProt P56856 1-261); assay: cell ELISA on 293 cells transfected with human Claudin18.1
T3 construct: whole, on cells; also called CLDN18.1; Caludin18.1

[4] = target: T1, 人Claudin18.2 (过表达细胞); assay: cell ELISA on 293 cells transfected with human Claudin18.2

| Binder | ADCC活性 EC50 (靶细胞的裂解百分比, LDH; NUGC4-Claudin18.2靶细胞, NK92效应细胞) [1] | EC50 [2] | binding result [3] | EC50 [4] |
| --- | --- | --- | --- | --- |
| B1 | 0.0126 nM | 0.49 mg/L | no binding | 0.028 mg/L |
| B2 | 0.0575 nM |  | no binding | 0.119 mg/L |
